Results: patent publication US12121596B2, “Near infrared fluorescent dyes, formulations and related methods” (Washington University, priority 2019, dated 2024)
Positions of bridges follow the written chain, without caps; N, C: chain ends. Non-standard residues stand in square brackets, D forms with d. Residues, ends and D or L forms follow the SMILES beside them. *: point of attachment. X1 = CC1(C)C(/C=C/C=C/C=C/C=C2/N(CCC(=O)*)c3ccc4ccccc4c3C2(C)C)=[N+](CCC(=O)[O-])c2ccc3ccccc3c21

Columns and labels:
[1] = Solubility and dilution stability of LS301 stock solutions; assay type: physicochemical; conditions: transparent solution, no precipitate after centrifugation
Method: At room temperature (˜25° C.), 200 μL of DMSO was added to 0.5 mg LS301 and vortexed for about 1 minute to homogenize. The solution was centrifuged to remove any non-dissolved components. The concentration was measured via absorbance.
Generally, solution concentrations ranged between 290 and 330 μM. This concentrated solution was diluted dropwise into 800 μL phosphate-buffered saline (PBS) calculated such that the final concentration was 60 μM LS301 and that the final concentration was 20% DMSO/80% PBS by volume (“20% DMSO”).
A 1:1 PEG400/Ethanol solution (v/v) was prepared by mixing 4 mL of PEG400 and 4 mL of ethanol and vortexing at high speed for 1 minute. 200 μL of this 1:1 solution was added to about 0.5 mg of LS301 to produce a transparent solution (>300 μM). No precipitate was observed after centrifugation.
LS301's solubility in ethanol ranged near the cutoff for producing a 20% ethanol/PBS solution. […] The 1:1 PEG400/ethanol solution could maintain stability up to about 1-to-16 dilution. In vivo, a screening test was done by IV injection of 60 μM solution into a Balb/c mouse with two 4T1luc tumors dorsally injected. […] To confirm LS301's multitumor affinity in the new solvent, solutions were tested against HT1080, A431, and DBT tumor-bearing mice.

[2] = test system: fibroblast co-cultured with ANXA2-positive GFP-expressing 4T1 cells; test: Fibroblast and 4T1 co-culture uptake; assay type: cell-based
Method: For co-culture experiments on intercellular pANXA2/ANXA2 transfer, fibroblasts (FB) (5×10^4 cells/well) were seeded on a 35-mm glass-bottom Petri dish (MarTek Cor. Ashland, MA, USA) overnight before seeding of 5×10^4 of cancer cells and further culture overnight before the experiment. LS301 (1 μM) was incubated with co-cultures of FB and ANXA2-YFP transfected HL60 cells, co-cultures of FB and wild-type HL60 cells, or co-cultures of FB and 4T1-GFP cells at 37° C. for 3 hours and then washed twice with 0.01 M PBS (pH 7.4). Then, the cells were fixed with 4% paraformaldehyde for 10 minutes.

Q: For `CC1(C)C(/C=C/C=C/C=C/C=C2/N(CCC(=O)N[C@@H]3CSSC[C@@H](C(=O)N[C@@H](CCCCN)C(=O)O)NC(=O)[C@@H]4CCCN4C(=O)[C@H](CO)NC(=O)[C@H](CC(=O)O)NC(=O)[C@H](CCCNC(=N)N)NC(=O)CNC3=O)c3ccc4ccccc4c3C2(C)C)=[N+](CCC(=O)[O-])c2ccc3ccccc3c21` [LS301, cypate-cyclic (DCys-Gly-Arg-Asp-Ser-Pro-Cys)-Lys-OH] (X1-[dC]GRDSPCK-OH; disulfide 1-7), which “solution concentration in 1:1 PEG400/Ethanol” value [1] is on record?
A: > 300 µM

Q: And the uptake in co-culture [2]?
A: LS301 uptake by tumor cells and fibroblasts
